Earlier results as cited in PMC11173308.

Target: calmodulin (UniProt P0DP23)

Kd: 7 µM
Substance: arrestin-2 (from UniProt P17870)
